Numbering of substitutions follows the chain as printed.

B1: anti-DLL3 trispecific protein, DLL3 binder 3G08 (protein, part only; not given: anti-CD3 fragment and anti-albumin sdAb, part only)
chain, part: EVQLVESGGGLVQPGGSLTLSCAASGSRVSFLSMAWYRQAPGKKRELVAGISKDGSTDYIDSVKGRFTISRDNAKNSVYLQMNSLRAEDTAVYYCYAYRWTTRVTYWGQGTLVTVSSGGGGSGGGSGGGGSGGGSHHHHHH
B2: anti-DLL3 trispecific protein, DLL3 binder 3H07 (protein, part only; not given: anti-CD3 and anti-albumin domains, part only)
chain, part: B1 chain, part with K53A, D58S, T101R, V104Y
B3: anti-DLL3 trispecific protein, DLL3 binder 3B02 (protein, part only; not given: CD3 fragment and albumin sdAb, part only)
chain, part: B1 chain, part with R28S, S30Q, K53A, D61N, T101R, V104Y
B4: anti-DLL3 trispecific protein, DLL3 binder 4E011 (protein, part only; not given: anti-CD3 fragment and anti-albumin sdAb, part only)
chain, part: B1 chain, part with R28S, K53A, D54T, T101S, V104Y
B5: anti-DLL3 trispecific protein, DLL3 binder 3C011 (protein, part only; not given: anti-CD3 fragment and anti-albumin domain, part only)
chain, part: B1 chain, part with R28S, S30R, K53A, D54H, T101R, V104Y
B6: anti-DLL3 trispecific protein, DLL3 binder 4A06 (protein, part only; not given: anti-CD3 fragment and anti-albumin domain, part only)
chain, part: B1 chain, part with R28S, S30R, K53R, V104R
B7: anti-DLL3 trispecific protein, DLL3 binder 4F03 (protein, part only; not given: CD3 binder and albumin binder, part only)
chain, part: B1 chain, part with R28S, S30Q, K53Y, T101R, V104Y
B8: anti-DLL3 trispecific protein, DLL3 binder 3F03 (protein, part only; not given: CD3 fragment and albumin sdAb, part only)
chain, part: B1 chain, part with R28S, K53A, T101R, V104Y
B9: anti-DLL3 trispecific protein, DLL3 binder 4H03 (protein, part only; not given: CD3 binder and albumin binder, part only)
chain, part: B1 chain, part with K53A, D58S, V104Y
B10: anti-DLL3 trispecific protein, DLL3 binder 3G07 (protein, part only; not given: anti-CD3 fragment and anti-albumin sdAb, part only)
chain, part: B1 chain, part with R28S, K53R, T102S, V104Y
B11: anti-DLL3 trispecific protein, DLL3 binder 3A08 (protein, part only; not given: CD3 binder and albumin binder, part only)
chain, part: B1 chain, part with R28S, S30G, K53A, D61R, T101R, V104Y
B12: anti-DLL3 trispecific protein, DLL3 binder 1B08 (protein, part only; not given: CD3 binder and albumin binder, part only)
chain, part: EVQLVESGGGLVQPGGSLTLSCVASGTTSSINAMGWYRRAPGKQRELVAGISSDGSKVYVDSVKGRFTISRDNAKNSVYLQMNSLRAEDTAVYYCYYFRFVSGSSMRYWGQGTLVTVSSGGGGSGGGSGGGGSGGGSHHHHHH
B13: anti-DLL3 trispecific protein, DLL3 binder 1H06 (protein, part only; not given: anti-CD3 fragment and anti-albumin sdAb, part only)
chain, part: B12 chain, part with V101L
B14: anti-DLL3 trispecific protein, DLL3 binder 2G011 (protein, part only; not given: anti-CD3 fragment and anti-albumin sdAb, part only)
chain, part: B12 chain, part with T27S, V48P, S53R, V60A, F100Y
B15: anti-DLL3 trispecific protein, DLL3 binder 2D02 (protein, part only; not given: anti-CD3 fragment and anti-albumin sdAb, part only)
chain, part: B12 chain, part with T27S, M34L, K57L, V60A, F100I
B16: anti-DLL3 trispecific protein, DLL3 binder 1F07 (protein, part only; not given: CD3 fragment and albumin sdAb, part only)
chain, part: B12 chain, part with T27S, Y59D, V60A, F100T
B17: anti-DLL3 trispecific protein, DLL3 binder 1D02 (protein, part only; not given: CD3 binder and albumin binder, part only)
chain, part: B12 chain, part with T27S, G35A, D54N, V60A, F100Q
B18: anti-DLL3 trispecific protein, DLL3 binder 1E05 (protein, part only; not given: anti-CD3 fragment and anti-albumin domain, part only)
chain, part: B12 chain, part with T27S, S30V, G35A, V48A, V60A, D61K, V63A, R99N, F100T

The target in the assay is biotinylated human DLL3 protein expressed as a human IgG1 fusion protein (human) (UniProt Q9NYJ7). Put plainly: Octet, biotinylated human DLL3-IgG1 fusion on streptavidin tips, single 50 nM, conditioned medium (relative KD).
biotinylated human DLL3 protein expressed as a human IgG1 fusion protein (human), sequence (Q9NYJ7 27-492): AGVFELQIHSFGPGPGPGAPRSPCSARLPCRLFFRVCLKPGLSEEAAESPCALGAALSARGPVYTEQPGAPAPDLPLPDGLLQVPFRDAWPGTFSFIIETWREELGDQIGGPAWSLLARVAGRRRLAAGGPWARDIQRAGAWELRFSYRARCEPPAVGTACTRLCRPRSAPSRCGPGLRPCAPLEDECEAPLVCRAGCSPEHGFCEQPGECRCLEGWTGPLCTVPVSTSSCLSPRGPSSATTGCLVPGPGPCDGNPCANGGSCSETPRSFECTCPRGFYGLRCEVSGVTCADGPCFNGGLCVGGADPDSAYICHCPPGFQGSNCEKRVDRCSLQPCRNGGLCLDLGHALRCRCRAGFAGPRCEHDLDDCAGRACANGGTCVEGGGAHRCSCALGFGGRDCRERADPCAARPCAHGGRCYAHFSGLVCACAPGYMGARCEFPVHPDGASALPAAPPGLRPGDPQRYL
As to B1, the Kd was determined as 12 nM.

As for B2, the dissociation constant (Kd) was 13 nM.

The molecule B3 registered a Kd of 12 nM.

As for B4, the equilibrium dissociation constant (Kd) turned out to be 13 nM.

The molecule B5 yielded a Kd of 14 nM.

Regarding B6, the dissociation constant (Kd) was 13 nM.

For B7, the dissociation constant Kd stood at 12 nM.

As for B8, the Kd amounted to 13 nM. This Kd and that of the molecule before are within 1.5-fold of each other.

B9 gave an equilibrium dissociation constant (Kd) of 13 nM. In other words, the double-digit nanomolar range.

Molecule B10 returned a Kd of 13 nM.

On to B11, for which the Kd amounted to 12 nM. This Kd and that of the molecule before are within 1.5-fold of each other.

As to B12, the Kd amounted to 12 nM.

B13 yielded a Kd of 14 nM.

With B14, the Kd came out at 13 nM.

Turning to B15, the Kd came to 14 nM.

For B16, the dissociation constant Kd is 13 nM.

The molecule B17 registered a Kd of 14 nM. This Kd and that of the molecule before are within 1.5-fold of each other.

Take B18: the Kd worked out at 14 nM.

The values above are taken from patent US20200095340A1.
